FireProtDB (doi:10.1021/bi00123a002)
Where “and” joins values, the source holds several entries; their conditions need not be identical. Equal entries are not always repeated.

B1: Tryptophan synthase alpha chain, P00929 (parent)
chain: MERYENLFAQLNDRREGAFVPFVTLGDPGIEQSLKIIDTLIDAGADALELGVPFSDPLADGPTIQNANLRAFAAGVTPAQCFEMLALIREKHPTIPIGLLMYANLVFNNGIDAFYARCEQVGVDSVLVADVPVEESAPFRQAALRHNIAPIFICPPNADDDLLRQVASYGRGYTYLLSRSGVTGAENRGALPLHHLIEKLKEYHAAPALQGFGISSPEQVSAAVRAGAAGAISGSAIVKIIEKNLASPKQMLAELRSFVSAMKAASRA

Variants of: B1
Settings: Salmonella typhimurium (strain LT2 / SGSC1412 / ATCC 700720), pH 7.8, 25 °C, Urea, CD, Potassium phosphate 10 mM, reversible: yes, structure 2WSY, whole UniProt chain shown

Variant	ddG of mutation (higher = less stable) [kcal/mol]	unfolding free energy [kcal/mol]	ddG of mutation (higher = less stable) (transition: 3) [kcal/mol]	denaturant m value (transition: 3)	denaturant midpoint (higher = more stable) (transition: 3)	unfolding free energy (transition: 3)
MERYENLFAQLNDRREGAFVPVVTLGDPGIEQSLKIIDTLIDAGADALELGVPFSDPLADGPTIQNANLRAFAAGVTPAQCFEMLALIREKHPTIPIGLLMYANLVFNNGIDAFYARCEQVGVDSVLVADVPVEESAPFRQAALRHNIAPIFICPPNADDDLLRQVASYGRGYTYLLSRSGVTGAENRGALPLHHLIEKLKEYHAAPALQGFGISSPEQVSAAVRAGAAGAISGSAIVKIIEKNLASPKQMLAELRSFVSAMKAASRA [F22V]	3.44	9.72	-0.06	1.74 kcal/mol/M	3.3 M	5.87 kcal/mol
MERYENLFAQLNDRREGAFVPLVTLGDPGIEQSLKIIDTLIDAGADALELGVPFSDPLADGPTIQNANLRAFAAGVTPAQCFEMLALIREKHPTIPIGLLMYANLVFNNGIDAFYARCEQVGVDSVLVADVPVEESAPFRQAALRHNIAPIFICPPNADDDLLRQVASYGRGYTYLLSRSGVTGAENRGALPLHHLIEKLKEYHAAPALQGFGISSPEQVSAAVRAGAAGAISGSAIVKIIEKNLASPKQMLAELRSFVSAMKAASRA [F22L]	1.05	12.1	–	2.96 kcal/mol/M and 1.7 kcal/mol/M	2.1 M and 3.3 M	6.38 kcal/mol and 5.73 kcal/mol
MERYENLFAQLNDRREGAFVPIVTLGDPGIEQSLKIIDTLIDAGADALELGVPFSDPLADGPTIQNANLRAFAAGVTPAQCFEMLALIREKHPTIPIGLLMYANLVFNNGIDAFYARCEQVGVDSVLVADVPVEESAPFRQAALRHNIAPIFICPPNADDDLLRQVASYGRGYTYLLSRSGVTGAENRGALPLHHLIEKLKEYHAAPALQGFGISSPEQVSAAVRAGAAGAISGSAIVKIIEKNLASPKQMLAELRSFVSAMKAASRA [F22I]	4.58	8.58	–	1.57 kcal/mol/M and 1.51 kcal/mol/M	2 M and 3.6 M	3.16 kcal/mol and 5.43 kcal/mol
